Measured values from PMC10374466.

Experiments:
[1] = biological target: T1, mouse IDO1 (Mus musculus, UniProt P28776 1-407); test: flow cytometry on protein-coated beads
[2] = biological target: T1, mouse IDO1; test: flow cytometry on protein-coated beads; remark: listed apart in the source

T1 sequence (P28776 whole entry): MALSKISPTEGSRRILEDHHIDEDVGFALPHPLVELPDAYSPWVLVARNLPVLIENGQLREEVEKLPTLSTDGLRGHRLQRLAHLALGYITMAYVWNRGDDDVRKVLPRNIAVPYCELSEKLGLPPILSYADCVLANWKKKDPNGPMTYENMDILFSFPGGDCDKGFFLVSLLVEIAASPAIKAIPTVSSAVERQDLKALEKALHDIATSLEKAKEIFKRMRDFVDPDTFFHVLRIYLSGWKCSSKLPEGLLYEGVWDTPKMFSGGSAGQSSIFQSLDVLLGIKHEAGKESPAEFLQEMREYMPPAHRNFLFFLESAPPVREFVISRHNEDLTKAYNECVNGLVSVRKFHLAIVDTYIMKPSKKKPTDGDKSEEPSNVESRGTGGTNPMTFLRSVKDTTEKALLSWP

B1: #2 (ssDNA)
DNA: CAGCACCGTCAACTGAATCCGTCACTCGCTCGGGGGTCCGACATTTACCCTGTGAAATGTGATGCGATGGAGATGT
B1: binds [1].

B2: #1 (ssDNA)
DNA: CAGCACCGTCAACTGAATATCAGGACGGACCTGGGGAGGTCAGTTAGCCCTCTGAACTGTGATGCGATGGAGATGT
B2: binds [1].

B3: IDO-APT (#4) (ssDNA)
DNA: CAGCACCGTCAACTGAATGCCAACGGCATATCCGGACAGGCGGGAACCTAGGGCCTTTGTGATGCGATGGAGATGT
In the case of B3, the Kd [2] is reported as 0.131 ± 0.009 µM.

B4: #3 (ssDNA)
DNA: CAGCACCGTCAACTGAATAGGAAGATACCCGGGGGTACCGTTACCGCTGTGAACGGAGGTGATGCGATGGAGATGT
B4: binds [1].
